Results on one substance are retold here after patent publication US20120159674A1.

The target in the assay is Cry1Ab receptor proteins in brush border membrane vesicle (BBMV) preparations from the midgut of Heliothis zea larvae. The assay is described as follows: homologous competition with 0.25 nM ^125I Cry1Ab on H. zea BBMV (0.10 mg protein/ml).

Regarding “Cry1Ab core toxin (trypsin truncated Cry1Ab)”, the IC50 came out at 2 nM.
